In patent US20240417475A1 (AFFIMED, published 2024):

What was measured:
[1] = biological target: T1, cynomolgus CD16 expressed on CHO cells (cAg_36) (cynomolgus, UniProt Q8SPW2 17-254); assay: flow cytometry on cyCD16-transfected CHO cells (cAg_36), on ice, FITC goat anti-human IgG detection
T1 construct: whole, on cells; also called cyCD16
Protocol: (§1) After washing in FACS buffer, cells were incubated in 50 μL FACS buffer without antibodies or with titrated antibodies starting at a concentration of 1000 nM followed by elven 3-fold serial dilutions for 40-50 min on ice in the dark. […] After washing, binding was measured by flow cytometry and mean fluorescence intensities (MFI) of cell samples were calculated and corrected for background staining using control cells stained with secondary antibodies only.

[2] = biological target: T2, human FOLR1-mFc_Avi-tag (sAg_303) (human, UniProt P15328 25-234, limits assumed); assay: ELISA, plate coated with human FOLR1-mFc_Avi-tag, anti-human Fab-HRP detection, A450
T2 construct: also called human FOLR1 (sAg_303); recombinant human FOLR1
Protocol: (§2) 96 well ELISA plates (F96 Maxisorp Immuno Plate, Nunc, cat: 442404) were coated overnight at 4° C. with 50 μL/well of 10 μg/mL human FOLR1-mFc_Avi-tag in DPBS. After overnight incubation plates were washed three times with PBST and blocked with Candor Blocking solution for 2 h at RT under mild agitation. […] After incubation with the secondary antibodies, the plate was washed five times with PBST and one time with PBS. Chromogenic substrate (1:1 mixture of TMB:TMBB, SeraCare cat: 5120-0048 and 5120-0037) was added and the reaction was stopped by addition of an equal volume of 0.5 M H₂SO₄ after sufficient color development. Absorbance at 450 nm was measured in an ELISA plate reader (Sunrise Absorbance Reader 901000833, Schoeller Instruments). The absorbance values were corrected by subtracting the background of the respective secondary antibody and fitted with a one site binding function (hyperbola) using GraphPad Prism (version 9.3.1. GraphPad Software, La Jolla California USA). KD is the concentration of ligand required to reach half-maximal binding.

[3] = biological target: T3, human FOLR1 endogenously expressed on tumor cell lines (human, UniProt P15328 25-234); assay: flow cytometry on IGROV-1 cells (FOLR1 high) at 37 °C, FITC anti-human IgG detection
T3 construct: whole, on cells; also called FOLR1-positive tumor cell lines; FOLR1+ target cells
Protocol: (§3) Cells were collected and centrifuged at 400×g, 5 min, 4° C. Cell pellets were resuspended in FACS buffer (PBS (Invitrogen, cat.: 392-0434) containing 2% h.i. FCS (Invitrogen, cat.: 10500-064), and 0.1% sodium azide (Sigma, cat.: S8032)) at 1-5×10⁶ cells/mL. 100 μL/well of the cell suspension were transferred into U-shaped, 96-well micro plates (0.1-0.5×10⁶ cells per well), cells were pelleted at 400×g, 5 min, 4° C., and resuspended in 100 μL/well of serial dilutions of the indicated antibodies in FACS buffer. After 40-50 min incubation at 37° C., cells were washed 3-times with ice-cold FACS buffer. […] After the final incubation step, cells were washed 2-times with ice-cold FACS buffer, and the cell pellet was resuspended in 100 μL FACS buffer. Fluorescence intensities of >1×10⁴ viable cells were analyzed by flow cytometry and the median fluorescence intensity (MFI) was determined for each sample.

[4] = biological target: T4, human CD16A (158F) expressed on CHO cells (cAg_34) (human, UniProt P08637 17-254); assay: flow cytometry on huCD16A (158F)-transfected CHO cells (cAg_34), on ice, FITC goat anti-human IgG detection
T4 construct: also called huCD16A-transfected CHO cells
Protocol: as §1

[5] = biological target: CD16A on in vitro differentiated human macrophages (human, UniProt P08637 17-254); assay: cell-based or functional assay
[6] = biological target: T3, human FOLR1 endogenously expressed on …; assay: flow cytometry on IGROV-1 cells, 37 C, one-site fit of MFI, mean
Protocol: as §3
(§4) Equilibrium dissociation constants (KD) of antibody binding, mean and standard deviation (SD) were calculated by plotting MFI values and fitting a non-linear regression model for one-site binding to hyperbolic dose-response curves using GraphPad Prism for Windows (v9; GraphPad Software; La Jolla California USA).
(§5) Specific antibody binding capacity (SABC) as a marker for FOLR1 expression level on cells was determined on all tumor cell lines using QIFIKIT.

[7] = biological target: T3, human FOLR1 endogenously expressed on …; assay: flow cytometry on OVCAR-3 cells (FOLR1 medium) at 37 °C, FITC anti-human IgG detection
Protocol: as §3

[8] = biological target: T3, human FOLR1 endogenously expressed on …; assay: flow cytometry on HCC-827 cells, 37 C, one-site fit of MFI, mean
Protocol: as §3, §4, §5

[9] = biological target: T5, human CD16A (158V) expressed on CHO cells (cAg_35) (human, UniProt P08637 17-254); assay: flow cytometry on huCD16A (158V)-transfected CHO cells (printed sAg_35), on ice, FITC goat anti-human IgG detection
T5 construct: also called huCD16A (158V)
Protocol: as §1

[10] = biological target: T3, human FOLR1 endogenously expressed on …; assay: flow cytometry on OVCAR-3 cells, 37 C, one-site fit of MFI, mean
Protocol: as §3, §4, §5

[11] = biological target: T3, human FOLR1 endogenously expressed on …; assay: flow cytometry on NCI-H2110 cells, 37 C, one-site fit of MFI, mean
Protocol: as §3, §4, §5

[12] = biological target: CD16A endogenously expressed on primary human NK cells (human, UniProt P08637 17-254); assay: flow cytometry on primary human NK cells at 37 °C, biotinylated antibody, streptavidin-FITC, without polyclonal human IgG
Protocol: Frozen NK cells were thawed, and viability was determined with trypan blue (Sigma-Aldrich, cat.: T8154). Cells have been centrifuged at 400×g, 5 min, 4° C. Cell pellets were resuspended in FACS buffer PBS (Invitrogen, cat.: 392-0434) containing 2% h.i. FCS (Invitrogen, cat.: 10500-064), and 0.1% sodium azide (Sigma, cat.: S8032) at 2×10⁶ cells/mL. 100 μL/well of the cell suspension were transferred into U-shaped 96 well plates, cells were pelleted at 400×g, 5 min. 4° C., and resuspended in 50 μL/well of diluted antibody constructs. […] After 40-50 minutes' incubation at 37° C., cells were washed 3-times with ice-cold FACS buffer. […] After the final incubation step, cells were washed 2-times with ice-cold FACS buffer, and the cell pellet was resuspended in 50 μL FACS buffer. Fluorescence intensity of >1×10⁴ viable cells was analyzed by flow cytometry and the median fluorescence intensity (MFI) was determined for each sample.

[13] = biological target: T2, human FOLR1-mFc_Avi-tag (sAg_303); assay: ELISA, plate coated with human FOLR1-mFc_Avi-tag (sAg_303), one-site fit, mean of 3
Protocol: as §2

[14] = biological target: T4, human CD16A (158F) expressed on CHO …; assay: flow cytometry on huCD16A-transfected CHO cells (cAg_34), one-site fit of MFI, experiment 1
Protocol: (§6) To analyze binding of different antibody constructs to CHO cells transfected with human CD16A (cAg_34), relative to CD16 expression by flow cytometry, 1-2×10⁵ were resuspended in 100 μL FACS buffer (PBS (Invitrogen, cat.: 14190-169) containing 2% heat-inactivated FCS (Invitrogen, cat.: 10270-106), and 0.1% sodium azide (Roth, Karlsruhe, Germany, cat.: A1430.0100)) in round-bottom 96-well microtiter plates. After washing in FACS buffer, cells were incubated in 50 μL FACS buffer without antibodies or with titrated antibodies starting at a concentration of 100 μg/mL followed by ten 5-fold serial dilutions for 30 min on ice in the dark. […] After washing, binding was measured by flow cytometry and mean fluorescence intensities (MFI) of cell samples were calculated and corrected for background staining using control cells stained with secondary antibodies only.
(§7) Equilibrium dissociation constants (KD) of antibody binding were calculated by plotting MFI values and fitting a non-linear regression model for one-site binding to hyperbolic dose-response curves using GraphPad Prism.

[15] = biological target: T4, human CD16A (158F) expressed on CHO …; assay: flow cytometry on huCD16A-transfected CHO cells, on ice, APC goat anti-human IgG detection
Protocol: as §6

[16] = biological target: T4, human CD16A (158F) expressed on CHO …; assay: flow cytometry on huCD16A-transfected CHO cells (cAg_34), one-site fit of MFI, experiment 3
Protocol: as §6, §7

[17] = biological target: T4, human CD16A (158F) expressed on CHO …; assay: flow cytometry on huCD16A-transfected CHO cells (cAg_34), one-site fit of MFI, mean of 3
Protocol: as §6, §7

[18] = biological target: T4, human CD16A (158F) expressed on CHO …; assay: flow cytometry on huCD16A-transfected CHO cells (cAg_34), one-site fit of MFI, experiment 2
Protocol: as §6, §7

T4 sequence (P08637 17-254 limits assumed): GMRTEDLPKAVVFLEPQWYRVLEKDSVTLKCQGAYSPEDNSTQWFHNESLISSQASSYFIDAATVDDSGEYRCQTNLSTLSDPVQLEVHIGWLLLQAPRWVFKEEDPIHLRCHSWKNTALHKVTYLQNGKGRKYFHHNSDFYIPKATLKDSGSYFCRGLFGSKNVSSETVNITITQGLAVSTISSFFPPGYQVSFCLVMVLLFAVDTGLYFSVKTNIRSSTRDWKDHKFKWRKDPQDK
Chain of CD16A on in vitro differentiated human macrophages (P08637 17-254 limits assumed): as above
T3 sequence (P15328 25-234): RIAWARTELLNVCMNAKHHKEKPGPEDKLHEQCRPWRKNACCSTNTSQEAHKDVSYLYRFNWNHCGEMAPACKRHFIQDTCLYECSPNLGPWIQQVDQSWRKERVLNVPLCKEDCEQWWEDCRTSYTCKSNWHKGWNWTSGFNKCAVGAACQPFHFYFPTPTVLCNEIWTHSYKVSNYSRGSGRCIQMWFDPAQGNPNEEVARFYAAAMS
T2 sequence (P15328 25-234 limits assumed): as the sequence (P15328 25-234) above
Chain of CD16A endogenously expressed on primary human NK cells (P08637 17-254 limits assumed): as the sequence (P08637 17-254 limits assumed) above
T1 sequence (Q8SPW2 17-254): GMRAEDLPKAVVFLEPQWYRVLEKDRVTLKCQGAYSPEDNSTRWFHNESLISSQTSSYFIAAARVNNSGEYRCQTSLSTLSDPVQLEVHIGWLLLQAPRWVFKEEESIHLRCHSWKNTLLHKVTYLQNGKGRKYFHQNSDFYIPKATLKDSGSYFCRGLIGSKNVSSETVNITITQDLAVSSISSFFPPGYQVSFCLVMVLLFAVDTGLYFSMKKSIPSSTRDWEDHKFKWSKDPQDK
T5 sequence (P08637 17-254 F176V limits assumed): as the sequence (P08637 17-254 limits assumed) above, with F160V counted along it

B1: scFv-IgAb_162 (FOLR1×RSV) (bispecific antibody)
heavy: EVQLVESGGGVVQPGRSLRLSCSASGFTFSGYGLSWVRQAPGKGLEWVAMISSGGSYTYYADSVKGRFAISRDNAKNTLFLQMDSLRPEDTGVYFCARHGDDPAWFAYWGQGTPVTVSSASTKGPSVFPLAPSSKSTSGGTAALGCLVKDYFPEPVTVSWNSGALTSGVHTFPAVLQSSGLYSLSSVVTVPSSSLGTQTYICNVNHKPSNTKVDKKVEPKSCDKTHTCPPCPAPEFEGGPSVFLFPPKPKDTLMISRTPEVTCVVVAVSHEDPEVKFNWYVDGVEVHNAKTKPREEQYNSTYRVVSVLTVLHQDWLNGKEYKCKVSNKALPAPIEKTISKAKGQPREPQVYTLPPSREEMTKNQVSLTCLVKGFYPSDIAVEWESNGQPENNYKTTPPVLDSDGSFFLYSKLTVDKSRWQQGNVFSCSVMHEALHNHYTQKSLSLSPGGGGGSGGGGSQVTLRESGPALVKPTQTLTLTCTFSGFSLSTAGMSVGWIRQPPGKALEWLADIWWDDKKHYNPSLKDRLTISKDTSKNQVVLKVTNMDPADTATYYCARDMIFNFYFDVWGQGTTVTVSSGGSGGSGGSGGSGGSGGSDIQMTQSPSTLSASVGDRVTITCSASSRVGYMHWYQQKPGKAPKLLIYDTSKLASGVPSRFSGSGSGTEFTLTISSLQPDDFATYYCFQGSGYPFTFGGGTKVEIK
light: DIQLTQSPSSLSASVGDRVTITCSVSSSISSNNLHWYQQKPGKAPKPWIYGTSNLASGVPSRFSGSGSGTDYTFTISSLQPEDIATYYCQQWSSYPYMYTFGQGTKVEIKRTVAAPSVFIFPPSDEQLKSGTASVVCLLNNFYPREAKVQWKVDNALQSGNSQESVTEQDSKDSTYSLSSTLTLSKADYEKHKVYACEVTHQGLSSPVTKSFNRGEC
notes: also called FOLR1/RSV scFv-IgAb_162; FOLR1×RSV(NIST); copies: 2 + 2
[1]
  binding result: no binding (tested: 1000 nM)
[2]
  EC50 (read off the curve): ~0.05 nM
[3]
  EC50 (read off the curve): ~4 nM
[4]
  binding result: no binding (tested: 1000 nM)
[5]
  Phagocytosis [%], 4 h ADCP, DK-MG cells: 0%
  Phagocytosis [%], 4 h ADCP, HCC-78 cells: 0%
  Phagocytosis [%], 4 h ADCP, HeLa cells: 0%
[6]
  Kd: 5.2 nM
[7]
  EC50 (read off the curve): ~2 nM
[8]
  Kd: 3.7 nM
[9]
  binding result: no binding (tested: 1000 nM)
[10]
  Kd: 2.5 nM
[11]
  Kd: 3 nM
[12]
  binding result: no binding (tested: about 500 nM)
[13]
  Kd: 0.06 nM

B2: scFv-IgAb_268 (CD123-1×CD16a1) (bispecific antibody)
heavy: QVQLQQSGAEVKKPGASVKVSCKASGYTFTDYYMKWVKQSHGKSLEWMGDIIPSNGATFYNQKFKGKATLTVDRSTSTAYMELSSLRSEDTAVYYCARSHLLRASWFAYWGQGTLVTVSSASTKGPSVFPLAPSSKSTSGGTAALGCLVKDYFPEPVTVSWNSGALTSGVHTFPAVLQSSGLYSLSSVVTVPSSSLGTQTYICNVNHKPSNTKVDKKVEPKSCDKTHTCPPCPAPEFEGGPSVFLFPPKPKDTLMISRTPEVTCVVVAVSHEDPEVKFNWYVDGVEVHNAKTKPREEQYNSTYRVVSVLTVLHQDWLNGKEYKCKVSNKALPAPIEKTISKAKGQPREPQVYTLPPSREEMTKNQVSLTCLVKGFYPSDIAVEWESNGQPENNYKTTPPVLDSDGSFFLYSKLTVDKSRWQQGNVFSCSVMHEALHNHYTQKSLSLSPGGGGGSGGGGSGGGGSGGGGSGGGGSGGGGSSYELTQPLSVSVALGQTARITCGGNNIGSKSVHWYQQKPGQAPVLVIYQDKKRPSGIPERFSGSNSGNTATLTISRAQAGDEADYYCQVWDDYIVLFGCGTKLTVLGGSGGSGGSGGSGGSGGSGGSQVQLVQSGAEVKKPGASVKVSCKASGYTFTNYYMQWVRQAPGQCLEWMGIINPSGGVTSYAQKFQGRVTMTRDTSTSTVYMELSSLRSEDTAVYYCARGSAYYYDFADYWGQGTLVTVSS
light: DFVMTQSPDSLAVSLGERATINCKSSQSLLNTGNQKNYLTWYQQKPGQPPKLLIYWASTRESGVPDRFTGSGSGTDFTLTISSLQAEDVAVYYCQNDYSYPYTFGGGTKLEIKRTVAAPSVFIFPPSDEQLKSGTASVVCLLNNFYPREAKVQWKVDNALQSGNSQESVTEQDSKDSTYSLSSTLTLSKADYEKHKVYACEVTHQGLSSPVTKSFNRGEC
notes: also called AFM28; CD123×CD16A scFv-IgAb_268
[14]
  Kd: 17.7 nM
[15]
  EC50 (read off the curve): ~8 nM
[16]
  Kd: 23.5 nM
[17]
  Kd: 16.3 nM
[18]
  Kd: 7.8 nM
